Changes are numbered by the printed parent chain.
T1: his-tagged B7-H3 (UniProt Q5ZPR3-2 29-245, limits assumed)
T1 construct: also called CD276; not shown: His tag
T1 sequence (looked up): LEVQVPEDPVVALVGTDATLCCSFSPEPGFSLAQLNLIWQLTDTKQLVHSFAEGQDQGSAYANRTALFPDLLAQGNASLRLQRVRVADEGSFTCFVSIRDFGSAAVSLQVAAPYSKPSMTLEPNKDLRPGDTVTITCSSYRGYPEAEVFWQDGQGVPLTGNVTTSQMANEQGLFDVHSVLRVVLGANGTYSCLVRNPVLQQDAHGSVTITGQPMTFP

T2: B7-H3 on CHO-K1 cells stably transfected with B7-H3 (GenScript #M00536) (UniProt Q5ZPR3 29-534, limits assumed)
T2 sequence (looked up): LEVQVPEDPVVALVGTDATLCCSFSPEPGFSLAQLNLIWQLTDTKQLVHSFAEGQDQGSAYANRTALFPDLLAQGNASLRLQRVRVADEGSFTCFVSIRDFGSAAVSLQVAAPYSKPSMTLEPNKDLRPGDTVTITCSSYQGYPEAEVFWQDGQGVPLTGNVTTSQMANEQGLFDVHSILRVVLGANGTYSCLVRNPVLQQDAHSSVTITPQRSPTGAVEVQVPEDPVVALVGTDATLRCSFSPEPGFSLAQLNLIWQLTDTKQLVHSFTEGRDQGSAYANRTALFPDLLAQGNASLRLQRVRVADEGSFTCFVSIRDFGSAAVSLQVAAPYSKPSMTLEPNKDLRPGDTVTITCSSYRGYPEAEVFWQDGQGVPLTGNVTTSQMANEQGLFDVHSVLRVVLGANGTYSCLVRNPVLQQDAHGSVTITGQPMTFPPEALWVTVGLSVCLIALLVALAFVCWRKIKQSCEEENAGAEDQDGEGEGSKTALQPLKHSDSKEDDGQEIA

B1: 40633p1.2.A8 scFv-Fc (scFv, V domains shown)
VH: EVQLLESGGGLLQPGGSLRLSCAASGFSFSSYGMHWVRQAPGKGLEWVAAINSDGSRIYYADSVKGRFTISRDNSKNTLYLQMNSLRAEDTAVYYCTKYYYHYAMDVWGQGTTVTVSS
VL: QSVLTQPPSASGTPGQRVTISCSGSRSDIGATTVNWYQQLPGTAPKLLIYQSHLRPSGVPDRFSGSKSGTSASLAISGLQSEDEADYYCASWDASLNTWVFGGGTKLTVL
B2: 40633p1.2.G9 scFv-Fc (scFv, V domains shown)
VH: B1 VH with K65E
VL: B1 VL
B3: 40633p1.2.D11 scFv-Fc (scFv, V domains shown)
VH: EVQLESGGGLVQPGGSLRLSCAASGFTVSYYGMSWVRQAPGKGLEWVSAIKQDGSEKYYADSVKGRFTISRDNSKNTLYLQMNSLRAEDTAVYYCARHWNDYSNAMNVWGQGTTVTVSS
VL: QSVLTQPPSASGTPGQRVTISCSGSTSNIAIDFVNWYQQLPGTAPKLLIYTIDQRPSGVPDRFSGSKSGTSASLAISGLQSEDEAVYYCASWDASLNGWVFGRGTKLTVL
notes: Tested as scFv-Fc supernatant
B4: Benchmark MGA-271 (antibody, V domains shown)
VH: EVQLVESGGGLVQPGGSLRLSCAASGFTFSSFGMHWVRQAPGKGLEWVAYISSDSSAIYYADTVKGRFTISRDNAKNSLYLQMNSLRDEDTAVYYCGRGRENIYYGSRLDYWGQGTTVTVSS
VL: DIQLTQSPSFLSASVGDRVTITCKASQNVDTNVAWYQQKPGKAPKALIYSASYRYSGVPSRFSGSGSGTDFTLTISSLQPEDFATYYCQQYNNYPFTFGQGTKLEIK
B5: 40633p1.2.E11 scFv-Fc (scFv, V domains shown)
VH: EVQLLESGGGLVQPGGSLRLSCAASGFSFSNYDMSWVRQAPGKGLEWVAGIRSGSRTYYADSVKGRFTISRDNSKNTLYLQMNSLRAEDTATYYCGRYFNMDVWGQGTTVTVSS
VL: QSVLTQPPSASGTPGQRVTISCSGSTFNIGTNLVHWYQQLPGTAPKLLIYLTDRRPPGVPDRFSGSKSGTSASLAISGLQSEDEANYYCATWDDSLNSFLFGGGTKLTVL
B6: 40633p1.2.D1 scFv-Fc (scFv, V domains shown)
VH: EVQLLESGGGLVQPGGSLRLSCAASGFTFDVYGMSWVRQAPGKGLEWVSAINWNGGSTYYADSVKGRFTISRDNSENTLYLQMNSLRAEDTAVYYCAKEKWKHFIYYGMDVWGQGTTVTVSS
VL: QSVLTQPASASGTPGQTVSISCSGSSSNIDSNTANWYQQLPGTAPKLLIYSNNQRPSGVPDRFSGSKSDTSASLAISGLQSEDEGDYYCSAWDDNLNGWLFGGGTKLTVL
notes: Tested as scFv-Fc supernatant
B7: 40633p1.2.E5 scFv-Fc (scFv, V domains shown)
VH: B6 VH with V31G, N52S, W53G, G55S, T58I, E76K, V93A
VL: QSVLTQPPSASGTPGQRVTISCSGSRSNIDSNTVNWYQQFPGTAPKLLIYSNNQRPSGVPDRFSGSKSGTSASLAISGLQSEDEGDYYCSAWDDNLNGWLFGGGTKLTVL
notes: Tested as scFv-Fc supernatant
B8: 40633p1.1.H11 scFv-Fc (scFv, V domains shown)
VH: EVQLLESGGGLVQPGGSLRLSCAASGFTFSSYPMTWVRQAPGKGLEWVADINSGGGTTLYADAVKGRFTISRDNSKNIVYLQMNSLRGEDTAVYYCAKHLDYYSYGMDVWGQGTTVTVSS
VL: QSVLTQPPSASGTPGQRVTISCSGVTSKIGSKYVHWYQQLPGTAPKLLIYRNFERPSGVPDRFSGSTSGTSASLAISGLQSEDEADYYCATWEGALNGWVFGGGTKLTVL
notes: Tested as scFv-Fc supernatant
B9: 40511p1.1.G1 IgG (antibody, V domains shown)
VH: DVQLVESGGGVVRPGESLRLSCAASGFTFSSYAESWVRQAPGEGLEWVSIISGSGGNTFYADSVKGRFTISRDNSKNTLYLQMNSLRAEDTAVYYCARFAYGFFDYWGLGTLVTVSS
VL: EIVLTQSPGTLSVSPGEGATLSCRASQTVGSKLAWYQQKPGQPPSLLIYDASTRATGIPDRFSGSGSGTDFTLTISSLQSEDFAVYYCQQYRNWPPLTFGGGTKVEIK
B10: 40511p1.2.A12 IgG (antibody, V domains shown)
VH: B9 VH
VL: B9 VL with G18R
B11: 40511p1.2.G10 IgG (antibody, V domains shown)
VH: DVQLVESGGGVVRPGESLRLSCAASGFTFSNYAMNWVRQAPGEGLEWVSRINYKGYNITYYADSVKGRFTISRDNSKNTLYLQMNSLRAEDTAVYYCAKSGSNSNNFFDYWGLGTLVTVSS
VL: B9 VL with V13L, G18R, P43A, S45R, D50G, G57D, D70E, R92I, T98S
B12: 40511p1.2.A4 IgG (antibody, V domains shown)
VH: B9 VH
VL: B9 VL with G18R, P43A, S45R, G57D
B13: 40633p1.2.E1 IgG (antibody, V domains shown)
VH: EVQLLESGRGLVQPGGSLRLSCAASGFTVSYYGMSWVRQAPGKGLEWVSVIKQDGSEEYYADSVKGRFTISRDNSKNTLYLQMNSLRAEDTAVYYCARHWNDYSNGMNVWGQGTTVTVSS
VL: B3 VL with I29V, A30G, I31D, D32R, F33Y, N35Y, T51L, I52D, V86D, R103G
B14: 40633p1.2.F3 IgG (antibody, V domains shown)
VH: B13 VH with R9G
VL: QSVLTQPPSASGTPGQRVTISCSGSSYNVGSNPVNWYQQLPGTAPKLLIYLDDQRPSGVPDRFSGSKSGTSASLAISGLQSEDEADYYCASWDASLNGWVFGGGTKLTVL
B15: 40511p1.1.D6 IgG (antibody, V domains shown)
VH: DVQLVESGGGVVRPGESLTLSCAASGFTINSYAVSWVRQAPGEGLEWVSGISGSGVRYYADSVKGRFTISRDNSNNTLYLQMNSLRAEDTAVYYCARSNKVTWNNFFDYWGLGTLVTVSS
VL: EVVLTQSPGTLTLSPGERATLSCRASRSILTSLAWYQQKPGQAPRLLIYNTVTRATGIPARFSGSGSGTEFTLTINSLQSEDFAVYYCQQYYDWPPLTFGGGTKVEIK
B16: 40511p1.1.G3 IgG (antibody, V domains shown)
VH: B15 VH with N73D
VL: B15 VL
B17: 40511p1.1.A1 IgG (antibody, V domains shown)
VH: B11 VH
VL: EIVLTQSPGTLSVSPGERATLSCRASQSVNSKLAWYQQRPGQAPRLLIYDASSRATGIPDRFSGSGSGTDFTLTISRLEPEDFAVYYCQQYKNWPPLTFGGGTKVEIK
B18: 40511p1.1.H5 IgG (antibody, V domains shown)
VH: B11 VH
VL: EIVLTQSPGTLSLSPGERATLSCRASQSIRSDLAWYQQKPGQAPRLLIYGAASRATGIPARFSGSGSGTEFTLTISSLQSGDFAVYYCQQYNSWPPLTFGGGTKVEIK
B19: 40633p1.2.E5 IgG (antibody, V domains shown)
VH: B6 VH with V31G, N52S, W53G, G55S, T58I, E76K, V93A
VL: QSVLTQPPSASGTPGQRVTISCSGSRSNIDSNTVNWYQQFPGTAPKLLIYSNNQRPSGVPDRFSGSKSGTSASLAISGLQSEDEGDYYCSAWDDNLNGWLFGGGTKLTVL

Target: T1, his-tagged B7-H3
Experiment: SPR, Carterra LSA; binder captured by anti-human Fc, his-tagged B7-H3 injected
Method: Binding affinities of anti-B7-H3 antibodies to B7-H3 were measured by Surface Plasmon Resonance (SPR) on a Carterra LSA instrument. Goat anti-human Fc antibody was amine coupled to a HC30M chip. ScFv-Fc supernatants were diluted 30-fold with HBSTE and were captured by the anti-human Fc coupled HC30M chip. A 1:2 dilution series of his-tagged B7-H3, starting at 400 nM, was injected onto the chip for binding. Data was analyzed using the Carterra TM Kinetics software.

| Kd | kon | koff | Binder |
| --- | --- | --- | --- |
| 12.5 nM | 304000 M⁻¹ s⁻¹ |  | B1 |
| 10.8 nM | 325000 M⁻¹ s⁻¹ |  | B2 |
| 307 nM | 241000 M⁻¹ s⁻¹ | 0.07 s⁻¹ | B3 |
| 164 nM | 72000 M⁻¹ s⁻¹ | 0.01 s⁻¹ | B4 |
| 1.11 nM | 134000 M⁻¹ s⁻¹ |  | B5 |
| 39.8 nM | 392000 M⁻¹ s⁻¹ | 0.02 s⁻¹ | B6 |
| 40.2 nM | 389000 M⁻¹ s⁻¹ | 0.02 s⁻¹ | B7 |
| 0.175 nM | 113000 M⁻¹ s⁻¹ |  | B8 |

Target: T2, B7-H3 on CHO-K1 cells stably …
Experiment: cell-based or functional assay

| ADCC reporter assay, EC50 Value, CHOK1/B7-H3 cells | ADCC reporter assay, Max RLU, CHOK1/B7-H3 cells | Binder |
| --- | --- | --- |
| 0.0416 µg/mL | 679000 RLU | B9 |
| 0.0352 µg/mL | 598000 RLU | B10 |
| ~0.0103 µg/mL | 893000 RLU | B11 |
| 0.0318 µg/mL | 548000 RLU | B12 |
| 0.031 µg/mL | 725000 RLU | B13 |
| 0.03 µg/mL | 700000 RLU | B14 |
| 0.014 µg/mL | 751000 RLU | B15 |
| 0.0141 µg/mL | 723000 RLU | B16 |
| 0.0124 µg/mL | 820000 RLU | B17 |
| 0.0164 µg/mL | 762000 RLU | B18 |
| 0.0268 µg/mL | 669000 RLU | B19 |

Source: patent US20260008852A1 (CRYSTAL BIOSCIENCE, published 2026)
